Molecular target: recombinant human IL-18 (human) (UniProt Q14116)
Test: cell-based or functional assay

recombinant human IL-18 (human), sequence (Q14116 37-193 limits assumed): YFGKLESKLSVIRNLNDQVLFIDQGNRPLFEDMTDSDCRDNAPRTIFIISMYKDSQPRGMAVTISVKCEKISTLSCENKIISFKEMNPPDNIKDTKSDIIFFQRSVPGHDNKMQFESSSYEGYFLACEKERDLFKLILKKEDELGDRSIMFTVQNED
hIL18BPa (58-192).TG.his, sequence (O95998 other isoform, or with tags, fused parts or gaps): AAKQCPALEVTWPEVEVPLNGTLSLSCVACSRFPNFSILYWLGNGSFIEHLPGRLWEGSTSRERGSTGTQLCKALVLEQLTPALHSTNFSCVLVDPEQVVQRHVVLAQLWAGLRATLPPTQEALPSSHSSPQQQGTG
hIL18BPa (64-192).TG.hFc, sequence (O95998 other isoform, or with tags, fused parts or gaps): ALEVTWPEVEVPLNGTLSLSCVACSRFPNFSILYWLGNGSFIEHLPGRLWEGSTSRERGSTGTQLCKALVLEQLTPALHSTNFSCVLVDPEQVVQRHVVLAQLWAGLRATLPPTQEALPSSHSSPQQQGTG
hIL18BPa (1-192).His, sequence (O95998 31-194): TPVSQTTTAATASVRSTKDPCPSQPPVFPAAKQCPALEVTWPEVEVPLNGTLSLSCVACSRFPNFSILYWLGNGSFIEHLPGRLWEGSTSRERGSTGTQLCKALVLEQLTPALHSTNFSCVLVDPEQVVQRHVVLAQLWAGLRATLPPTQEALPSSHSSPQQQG
hIL18BPa (1-168).TG.hFc, sequence (O95998 other isoform, or with tags, fused parts or gaps): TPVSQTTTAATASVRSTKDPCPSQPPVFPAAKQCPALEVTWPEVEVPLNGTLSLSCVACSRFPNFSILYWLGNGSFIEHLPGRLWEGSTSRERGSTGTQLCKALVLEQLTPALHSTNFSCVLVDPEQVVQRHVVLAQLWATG

Row | Substance | IC50 (M), HEK293/NFkB-luciferase bioassay [M]
1 | hFc.TG.hIL18BPa (58-192) (C129S). (from UniProt O95998 60-194) (Fc fusion) | 1.51e-10
2 | hIL18BPa (1-168).TG.hFc (from UniProt O95998 31-170) (Fc fusion) | 1.75e-09
3 | hIL18BPa (1-192) (C49S, C129S).hIL18Rβ.hFc (Fc fusion) | 2.06e-10
4 | hIL18BPa (1-192) (C84S).TG.hFc (from UniProt O95998 31-194) (Fc fusion) | 2.6e-05
5 | hIL18BPa (1-192) (C129S).hFc (from UniProt O95998 31-194) (Fc fusion) | 2.05e-10
6 | hIL18BPa (1-192).His (from UniProt O95998 31-194) (receptor) | 2.1e-10
7 | hIL18BPa (58-192) (C62S, C87S, C129S).TG.hFc (from UniProt O95998 60-194) (Fc fusion) | 7.56e-09
8 | hIL18BPa (58-192) (C129D).TG.hFc (from UniProt O95998 60-194) (Fc fusion) | 2.98e-09
9 | hIL18BPa (58-192) (C129E).TG.hFc (from UniProt O95998 60-194) (Fc fusion) | 5.15e-10
10 | hIL18BPa (58-192) (C129H).TG..hFc (from UniProt O95998 60-194) (Fc fusion) | 8.44e-11
11 | hIL18BPa (58-192) (C129K).TG.hFc (from UniProt O95998 60-194) (Fc fusion) | 7.42e-11
12 | hIL18BPa (58-192) (C129S).biot.His (from UniProt O95998 60-194) (receptor) | 4e-11
13 | hIL18BPa (58-192) (C129S, C148S).TG.hFc (from UniProt O95998 60-194) (Fc fusion) | 7.3e-09
14 | hIL18BPa (58-192)(C62S, C129S).TG.hFc (from UniProt O95998 60-194) (Fc fusion) | 9e-09
15 | hIL18BPa (58-192)(C84S).TG.hFc (from UniProt O95998 60-194) (Fc fusion) | 7.38e-09
16 | hIL18BPa (58-192)(C87S, C129S).TG.hFc (from UniProt O95998 60-194) (Fc fusion) | 7.5e-09
17 | hIL18BPa (58-192)(C87S, C129S, C148S).TG.hFc (from UniProt O95998 60-194) (Fc fusion) | 9.7e-09
18 | hIL18BPa (58-192).TG.his (from UniProt O95998 60-194) (receptor) | 4.1e-10
19 | hIL18BPa (64-192).TG.hFc (from UniProt O95998 66-194) (Fc fusion) | 7e-09
20 | hIL18BPa(58-192)(C62S, C129S, C148S).TG.hFc (from UniProt O95998 60-194) (Fc fusion) | 6.7e-09
21 | hIL18Rβ.SG.hIL18BPa (58-192).TG.hFc (Fc fusion) | 2.3e-09
22 | hIL18Rβ.hIL18BPa (1-192) (C49S, C129S).hFc (Fc fusion) | 1.38e-09

Source: patent US20050221433A1
